Where only a bound is given, the exact number is not on record here.

In general, Kd refers to the free concentration of one partner at which half of the binding sites on the other are occupied at equilibrium, for simple one-to-one binding. As usually defined, the IC50 is the concentration needed to halve the response being measured. The low end stands for inhibition by little substance, the high end for a need for much substance.

One assay concerns the target HLA-A*02:06. As to the kind of experiment: IEDB peptide-MHC binding, purified MHC/competitive/radioactivity; filed as Kd, often an IC50 or EC50 that approximates it; ≥ and ≤ were set here for values at or beyond the usual limits of such assays.
The next assay addresses HLA-A*02:03. The description is as above.
In a further assay the target is HLA-A*02:02. The description is as above.
The target in assay [1] is HLA-A*02:01. As to the kind of experiment: IEDB peptide-MHC binding, purified MHC/competitive/fluorescence; ≥ and ≤ were set here for values at or beyond the usual limits of such assays.
Another assay has as its target HLA-A*30:02. As to the kind of experiment: IEDB peptide-MHC binding, purified MHC/competitive/radioactivity; filed as Kd, often an IC50 or EC50 that approximates it; ≥ and ≤ were set here for values at or beyond the usual limits of such assays. To be noted: source organism: Dengue virus 2 Jamaica/1409/1983.
The target in a further assay is HLA-A*03:01. Briefly: IEDB peptide-MHC binding, purified MHC/direct/fluorescence; filed as Kd, often an IC50 or EC50 that approximates it; ≥ and ≤ were set here for values at or beyond the usual limits of such assays. The note with it: source organism: Vibrio cholerae.
Assay [2] deals with HLA-A*02:01. Described as above. To be noted: source organism: Camelpox virus M-96.
The target of the next assay is HLA-A*26:01. Briefly: IEDB peptide-MHC binding, purified MHC/competitive/radioactivity; filed as Kd, often an IC50 or EC50 that approximates it; ≥ and ≤ were set here for values at or beyond the usual limits of such assays.
A further assay deals with HLA-B*58:01. Briefly: IEDB peptide-MHC binding, purified MHC/direct/fluorescence; filed as Kd, often an IC50 or EC50 that approximates it; ≥ and ≤ were set here for values at or beyond the usual limits of such assays. To be noted: source organism: Mycobacterium tuberculosis variant bovis.
[3] abbreviates: source organism: Mammarenavirus whitewaterense.
The mark [4] stands for this setting: source organism: Vaccinia virus WR.
Setting [5] is: source organism: Lymphocytic choriomeningitis virus (strain WE).
The mark [6] stands for this setting: source organism: Zaire ebolavirus.
The mark [7] stands for this setting: source organism: SARS coronavirus Tor2.
The mark [8] stands for this setting: source organism: Mammarenavirus brazilense.
Setting [9] is: source organism: Dengue virus 2 Jamaica/1409/1983.

On to GLVDVCFWS, for which the figures for the Kd with HLA-A*02:06 (setting [3]), in the assay with HLA-A*02:03 (setting [3]) and with HLA-A*02:02 (setting [3]) were 533 nM, 1070 nM and 116 nM, respectively.

Take RLGPTLMCL: the half-inhibitory concentration (IC50) with HLA-A*02:01 [1] (source organism: Homo sapiens) was found to be 1780 nM.

Turning to ILATLNTLI, the dissociation constant (Kd) with HLA-A*02:06 (setting [4]) amounted to 40.5 nM; in the assay with HLA-A*02:03 (setting [4]), 0.231 nM; with HLA-A*02:02 (setting [4]), 0.413 nM.

RVAAEGINY: the Kd with HLA-A*30:02 stood at 48.4 nM.

The sequence TLNRCALLR displayed a Kd with HLA-A*03:01 of 2230 nM.

As to FKIDNNTFV, the IC50 in the assay with HLA-A*02:01 [1] (source organism: Sudan ebolavirus) stood at 40800 nM.

VVIVENDNV: the Kd was 4300 nM in the assay with HLA-A*02:06 (setting [4]), not below 38000 nM with HLA-A*02:03 (setting [4]) and 13200 nM with HLA-A*02:02 (setting [4]).

In the case of VVISVIFYFI, the values for the Kd in the assay with HLA-A*02:06 (setting [4]), in the assay with HLA-A*02:03 (setting [4]) and in the assay with HLA-A*02:02 (setting [4]) were 542 nM, 755 nM and 239 nM, respectively.

On to FSTSAYLISI, for which the results for the dissociation constant (Kd) with HLA-A*02:06 (setting [5]), in the assay with HLA-A*02:03 (setting [5]) and in the assay with HLA-A*02:02 (setting [5]) were 3.48 nM, 13.5 nM and 0.675 nM, respectively.

GLITNTIAG had an IC50 with HLA-A*02:01 [1] (setting [6]) of 4100 nM.

As for KVYLSTFNM, the figures for the Kd with HLA-A*02:06 (setting [4]), in the assay with HLA-A*02:03 (setting [4]) and in the assay with HLA-A*02:02 (setting [4]) were 265 nM, 786 nM and 482 nM, respectively.

Take RMIAISAKV: the dissociation constant Kd with HLA-A*02:01 [2] is 3.4 nM.

As for ENPYRTWAY, the dissociation constant (Kd) with HLA-A*26:01 (source organism: Dengue virus 4 Philippines/H241/1956) amounted to 4380 nM.

As to QDQDHTQEA, the 50% inhibitory concentration (IC50) in the assay with HLA-A*02:01 [1] (setting [6]) is not below 321000 nM.

Sequence KVNPEIDTT yielded an IC50 in the assay with HLA-A*02:01 [1] (setting [6]) not below 120000 nM.

Turning to YMDDRDINP, in the assay with HLA-A*02:01 [1] (source organism: Vaccinia virus), the IC50 is 27100 nM.

With KVEKYLPEV, the dissociation constant Kd in the assay with HLA-A*02:06 (setting [4]) is 116 nM; with HLA-A*02:03 (setting [4]), 171 nM; with HLA-A*02:02 (setting [4]), 1050 nM.

For the sequence SLIYYQNEVT, the results for the Kd in the assay with HLA-A*02:06 (setting [4]), with HLA-A*02:03 (setting [4]) and with HLA-A*02:02 (setting [4]) were 4310 nM, 606 nM and 77.2 nM, respectively.

With DLLNVTYNI, the Kd came out at 1280 nM with HLA-A*02:06 (setting [4]), 194 nM with HLA-A*02:03 (setting [4]) and 297 nM with HLA-A*02:02 (setting [4]).

As to FARLLNLSG, in the assay with HLA-A*02:01 [1] (setting [6]), the IC50 came out at 48200 nM.

As for TILATLNTL, the Kd in the assay with HLA-A*02:06 (setting [4]) was 25.6 nM; with HLA-A*02:03 (setting [4]), 33.8 nM; with HLA-A*02:02 (setting [4]) it was 238 nM.

In the case of RQLTSNVDV, the results for the Kd with HLA-A*02:06 (setting [4]), in the assay with HLA-A*02:03 (setting [4]) and in the assay with HLA-A*02:02 (setting [4]) were 170 nM, 9760 nM and not below 50800 nM, respectively.

With IADIRDKYM, the Kd with HLA-A*02:06 (setting [4]) was not below 58100 nM; with HLA-A*02:03 (setting [4]), 230 nM; in the assay with HLA-A*02:02 (setting [4]), 63.5 nM.

On to DVSVSVGTGI, for which the Kd with HLA-A*02:06 (setting [4]) is not below 22100 nM; with HLA-A*02:03 (setting [4]) it was 5830 nM; in the assay with HLA-A*02:02 (setting [4]), 17900 nM.

Take EMKYALINL: the Kd was not below 77100 nM in the assay with HLA-A*02:06 (setting [4]), 63.5 nM with HLA-A*02:03 (setting [4]) and 3060 nM with HLA-A*02:02 (setting [4]).

Turning to ALLFLMSFT, the dissociation constant Kd is 128 nM in the assay with HLA-A*02:06 (setting [7]), 1990 nM with HLA-A*02:03 (setting [7]) and 2830 nM in the assay with HLA-A*02:02 (setting [7]).

As for FIVYGRSNA, the Kd with HLA-A*02:06 (setting [4]) was 8750 nM; in the assay with HLA-A*02:03 (setting [4]), 370 nM; with HLA-A*02:02 (setting [4]), 6090 nM.

Regarding RSEELSFTV, in the assay with HLA-A*02:01 [1] (setting [6]), the IC50 turned out to be 2380 nM.

TTTYKAFDW registered a Kd with HLA-B*58:01 of 71.3 nM.

With LNISGYNYSL, the values for the Kd with HLA-A*02:06 (setting [8]), in the assay with HLA-A*02:03 (setting [8]) and with HLA-A*02:02 (setting [8]) were 1090 nM, not below 49000 nM and 77.1 nM, respectively.

In the assay with HLA-A*02:01 [1] (setting [6]), FSGLLIVKT had an IC50 not below 370000 nM.

For the sequence LASLTPKAQ, the IC50 in the assay with HLA-A*02:01 [1] (source organism: Variola virus) was not below 206000 nM.

In the case of STIPETILEL, the Kd with HLA-A*02:06 (setting [9]) was 79.6 nM; with HLA-A*26:01 (setting [9]), 831 nM.

In the case of KIVQLPKRGV, the Kd with HLA-A*02:06 (setting [4]) is 2250 nM; with HLA-A*02:03 (setting [4]), 51.4 nM; with HLA-A*02:02 (setting [4]), 4120 nM.

In the case of PTNDIPSLFI, the Kd was 14800 nM with HLA-A*02:06 (setting [4]), not below 61800 nM with HLA-A*02:03 (setting [4]) and 11000 nM in the assay with HLA-A*02:02 (setting [4]).

Sequence LLNLSGVNN showed an IC50 in the assay with HLA-A*02:01 [1] (setting [6]) not below 167000 nM.

On to DLLFNEKLKV, for which the Kd with HLA-A*02:06 (setting [4]) was 2020 nM; with HLA-A*02:03 (setting [4]), 317 nM; with HLA-A*02:02 (setting [4]), 357 nM.

The values are drawn from the Immune Epitope Database (IEDB).
